Assay results reported in patent publication US20240301052A1 (LANOVA MEDICINES DEVELOPMENT, published 2024).

B1: 30H9B8F9.p1.z1 hIgG1 (antibody, V domains shown)
VH: QVQLVQSGAEVKKPGASVKVSCKASGYTFTTNNMHWVRQAPGQGLEWMGAIYPGSGATAYNQKFKGRVTMTRDTSTSTVYMELSSLRSEDTAVYYCASGMYGHGAMDYWGQGTLVTVSS
VL: DIQLTQSPSFLSASVGDRVTITCKASQDVGTAVAWYQQKPGKAPKLLIYWATTRHSGVPSRFSGSGSGTEFTLTISSLQPEDFATYYCQQYSSNPLTFGQGTKLEIK
notes: humanized hIgG1
B2: 30H9B8F9.p1.z2 hIgG1 (antibody, V domains shown)
VH: QVQLVQSGAEVKKPGASVKVSCKASGYTFTTNNMHWVRQAPGQGLEWMGAIYPGSGATAYNQKFKGRVTMTRDTSTSTVYMELSSLRSEDTAVYYCASGMYGHGAMDYWGQGTLVTVSS
VL: DIQLTQSPSFLSASVGDRVTITCKASQDVGTAVAWYQQKPGKSPKLLIYWATTRHSGVPDRFSGSGSGTEFTFTISSLQPEDFATYFCQQYSSNPLTFGQGTKLEIK
notes: humanized hIgG1
B3: 30H9B8F9.p1.z3 hIgG1 (antibody, V domains shown)
VH: QVQLVQSGAEVKKPGASVKVSCKASGYTFTTNNMHWVRQAPGQGLEWMGAIYPGSGATAYNQKFKGRVTMTRDTSTSTVYMELSSLRSEDTAVYYCASGMYGHGAMDYWGQGTLVTVSS
VL: DIQMTQSPSFLSASVGDRVTITCKASQDVGTAVAWYQQKPGKSPKLLIYWATTRHSGVPDRFSGSGSGTEFIFTISSVQPEDFATYFCQQYSSNPLTFGAGTKLEIK
notes: humanized hIgG1
B4: 62G10E4G8.p3.z7 hIgG1 (antibody, V domains shown)
VH: QVQLVQSGAEVKKPGASVKVSCKASGYTFPSYITHWVRQAPGQGLEWIGAIYPGNADTSYIQKFKGRVTMTADKSTSTVYMELSSLRSEDTAVYYCARGTYGTSAWFTYWGQGTLVTVSS
VL: EIVLTQSPATLSVSPGERATLSCRARQNIGNNLYWYQQKPGQSPRLLIKYASQSISGIPSRFSGSGSGTDFTLTISSLQSEDFAVYFCQQSFSWPLTFGQGTKLEIK
notes: humanized hIgG1
B5: 62G10E4G8.p3.z4 hIgG1 (antibody, V domains shown)
VH: QVQLVQSGAEVKKPGASVKVSCKASGYTFPSYITHWVRQAPGQGLEWMGAIYPGNADTSYIQKFKGRVTMTRDTSTSTVYMELSSLRSEDTAVYYCARGTYGTSAWFTYWGQGTLVTVSS
VL: EIVLTQSPATLSASPGERATLSCRARQNIGNNLYWYQQKPGQSPRLLIKYASQSISGIPSRFSGSGSGTDFTLTISSVQSEDFAVYFCQQSFSWPLTFGAGTKLEIK
notes: humanized hIgG1
B6: 62G10E4G8.p3.z2 hIgG1 (antibody, V domains shown)
VH: QVQLVQSGAEVKKPGASVKVSCKASGYTFPSYITHWVRQAPGQGLEWMGAIYPGNADTSYIQKFKGRVTMTRDTSTSTVYMELSSLRSEDTAVYYCARGTYGTSAWFTYWGQGTLVTVSS
VL: EIVMTQSPATLSVSPGERATLSCRARQNIGNNLYWYQQKPGQSPRLLIKYASQSISGIPARFSGSGSGTEFTLTISSLQSEDFAVYFCQQSFSWPLTFGQGTKLEIK
notes: humanized hIgG1
B7: 62G10E4G8.p3.z12 hIgG1 (antibody, V domains shown)
VH: QVQLVQSGAEVKKPGASVKVSCKASGYTFPSYITHWVKQAPGQGLEWIGAIYPGNADTSYIQKFKGRVTLTADKSTSTAYMELSSLRSEDTAVYYCARGTYGTSAWFTYWGQGTLVTVSS
VL: EIVLTQSPATLSASPGERATLSCRARQNIGNNLYWYQQKPGQSPRLLIKYASQSISGIPSRFSGSGSGTDFTLTISSVQSEDFAVYFCQQSFSWPLTFGAGTKLEIK
notes: humanized hIgG1
B8: 62G10E4G8.p3.z14 hIgG1 (antibody, V domains shown)
VH: QVQLVQSGAEVVKPGASVKMSCKASGYTFPSYITHWVKQAPGQGLEWIGAIYPGNADTSYIQKFKGRATLTADKSTSTAYMELSSLRSEDTAVYYCARGTYGTSAWFTYWGQGTLVTVSS
VL: EIVMTQSPATLSVSPGERATLSCRARQNIGNNLYWYQQKPGQSPRLLIKYASQSISGIPARFSGSGSGTEFTLTISSLQSEDFAVYFCQQSFSWPLTFGQGTKLEIK
notes: humanized hIgG1
B9: 62G10E4G8.p3.z16 hIgG1 (antibody, V domains shown)
VH: QVQLVQSGAEVVKPGASVKMSCKASGYTFPSYITHWVKQAPGQGLEWIGAIYPGNADTSYIQKFKGRATLTADKSTSTAYMELSSLRSEDTAVYYCARGTYGTSAWFTYWGQGTLVTVSS
VL: EIVLTQSPATLSASPGERATLSCRARQNIGNNLYWYQQKPGQSPRLLIKYASQSISGIPSRFSGSGSGTDFTLTISSVQSEDFAVYFCQQSFSWPLTFGAGTKLEIK
notes: humanized hIgG1
B10: 62G10E4G8.p3.z5 hIgG1 (antibody, V domains shown)
VH: QVQLVQSGAEVKKPGASVKVSCKASGYTFPSYITHWVRQAPGQGLEWIGAIYPGNADTSYIQKFKGRVTMTADKSTSTVYMELSSLRSEDTAVYYCARGTYGTSAWFTYWGQGTLVTVSS
VL: EIVMTQSPATLSVSPGERATLSCRARQNIGNNLYWYQQKPGQAPRLLIYYASQSISGIPARFSGSGSGTEFTLTISSLQSEDFAVYYCQQSFSWPLTFGQGTKLEIK
notes: humanized hIgG1
B11: 62G10E4G8.p3.z1 hIgG1 (antibody, V domains shown)
VH: QVQLVQSGAEVKKPGASVKVSCKASGYTFPSYITHWVRQAPGQGLEWMGAIYPGNADTSYIQKFKGRVTMTRDTSTSTVYMELSSLRSEDTAVYYCARGTYGTSAWFTYWGQGTLVTVSS
VL: EIVMTQSPATLSVSPGERATLSCRARQNIGNNLYWYQQKPGQAPRLLIYYASQSISGIPARFSGSGSGTEFTLTISSLQSEDFAVYYCQQSFSWPLTFGQGTKLEIK
notes: humanized hIgG1
B12: 62G10E4G8.p3.z6 hIgG1 (antibody, V domains shown)
VH: QVQLVQSGAEVKKPGASVKVSCKASGYTFPSYITHWVRQAPGQGLEWIGAIYPGNADTSYIQKFKGRVTMTADKSTSTVYMELSSLRSEDTAVYYCARGTYGTSAWFTYWGQGTLVTVSS
VL: EIVMTQSPATLSVSPGERATLSCRARQNIGNNLYWYQQKPGQSPRLLIKYASQSISGIPARFSGSGSGTEFTLTISSLQSEDFAVYFCQQSFSWPLTFGQGTKLEIK
notes: humanized hIgG1
B13: 62G10E4G8.p3.z10 hIgG1 (antibody, V domains shown)
VH: QVQLVQSGAEVKKPGASVKVSCKASGYTFPSYITHWVKQAPGQGLEWIGAIYPGNADTSYIQKFKGRVTLTADKSTSTAYMELSSLRSEDTAVYYCARGTYGTSAWFTYWGQGTLVTVSS
VL: EIVMTQSPATLSVSPGERATLSCRARQNIGNNLYWYQQKPGQSPRLLIKYASQSISGIPARFSGSGSGTEFTLTISSLQSEDFAVYFCQQSFSWPLTFGQGTKLEIK
notes: humanized hIgG1
B14: 62G10E4G8.p3.z3 hIgG1 (antibody, V domains shown)
VH: QVQLVQSGAEVKKPGASVKVSCKASGYTFPSYITHWVRQAPGQGLEWMGAIYPGNADTSYIQKFKGRVTMTRDTSTSTVYMELSSLRSEDTAVYYCARGTYGTSAWFTYWGQGTLVTVSS
VL: EIVLTQSPATLSVSPGERATLSCRARQNIGNNLYWYQQKPGQSPRLLIKYASQSISGIPSRFSGSGSGTDFTLTISSLQSEDFAVYFCQQSFSWPLTFGQGTKLEIK
notes: humanized hIgG1
B15: 62G10E4G8.p3.z9 hIgG1 (antibody, V domains shown)
VH: QVQLVQSGAEVKKPGASVKVSCKASGYTFPSYITHWVKQAPGQGLEWIGAIYPGNADTSYIQKFKGRVTLTADKSTSTAYMELSSLRSEDTAVYYCARGTYGTSAWFTYWGQGTLVTVSS
VL: EIVMTQSPATLSVSPGERATLSCRARQNIGNNLYWYQQKPGQAPRLLIYYASQSISGIPARFSGSGSGTEFTLTISSLQSEDFAVYYCQQSFSWPLTFGQGTKLEIK
notes: humanized hIgG1

These binders were tested against T1, human SLC34A2 (human, UniProt O95436 1-690) (assay: FACS, OVCAR3 cells).
T1 construct: whole, on cells; also called human solute carrier 34 A2; NaPi2b
T1 sequence (looked up): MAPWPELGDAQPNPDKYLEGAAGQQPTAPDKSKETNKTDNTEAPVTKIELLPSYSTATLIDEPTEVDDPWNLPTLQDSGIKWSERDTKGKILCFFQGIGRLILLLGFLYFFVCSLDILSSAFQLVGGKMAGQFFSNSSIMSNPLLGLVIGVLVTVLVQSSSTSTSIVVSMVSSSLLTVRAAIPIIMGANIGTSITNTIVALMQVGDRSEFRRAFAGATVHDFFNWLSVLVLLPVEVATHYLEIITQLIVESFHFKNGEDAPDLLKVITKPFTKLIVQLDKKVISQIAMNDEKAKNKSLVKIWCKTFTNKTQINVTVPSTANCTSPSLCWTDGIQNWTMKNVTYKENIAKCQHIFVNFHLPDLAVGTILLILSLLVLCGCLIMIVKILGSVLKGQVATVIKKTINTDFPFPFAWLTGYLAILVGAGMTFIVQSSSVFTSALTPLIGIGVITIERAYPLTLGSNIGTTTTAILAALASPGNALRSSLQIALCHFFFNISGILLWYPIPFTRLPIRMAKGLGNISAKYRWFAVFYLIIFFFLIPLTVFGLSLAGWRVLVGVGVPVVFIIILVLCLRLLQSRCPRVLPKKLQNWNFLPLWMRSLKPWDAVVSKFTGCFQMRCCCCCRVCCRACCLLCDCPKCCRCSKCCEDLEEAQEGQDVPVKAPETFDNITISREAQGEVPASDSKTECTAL
Method: The binding of these humanized antibodies to OVCAR3 cells was evaluated as described above, and the results are shown in FIG. 12A-D and Tables 16A-D.
For B1, the EC50 was 2.75 nM and the “Top (MFI)” value was 27100 MFI. With B2 the EC50 was 3.09 nM and the “Top (MFI)” value was 25200 MFI. B3 was tested, and the EC50 was 2.38 nM and the “Top (MFI)” value was 19600 MFI. For B4, the EC50 was 6.08 nM and the “Top (MFI)” value was 26800 MFI. In the case of B5, the EC50 is reported as 16.3 nM and the “Top (MFI)” value is reported as 29900 MFI. B6 was tested, and the EC50 was 32.9 nM and the “Top (MFI)” value was 29700 MFI. In the case of B7, the EC50 is reported as 2.96 nM and the “Top (MFI)” value is reported as 25400 MFI. In the case of B8, the EC50 is reported as 4.58 nM and the “Top (MFI)” value is reported as 27900 MFI. With B9 the EC50 was 10.9 nM and the “Top (MFI)” value was 31900 MFI. In the case of B10, the EC50 is reported as roughly 1360 nM and the “Top (MFI)” value is reported as roughly 230000 MFI. B11 was tested, and the EC50 was 944 nM and the “Top (MFI)” value was 87700 MFI. B12 was tested, and the EC50 was 8.06 nM and the “Top (MFI)” value was 28200 MFI. B13 was tested, and the EC50 was 4.87 nM and the “Top (MFI)” value was 27400 MFI. In the case of B14, the EC50 is reported as 17.3 nM and the “Top (MFI)” value is reported as 31300 MFI. In the case of B15, the EC50 is reported as 24.1 nM and the “Top (MFI)” value is reported as 31300 MFI.
